This test deals with β-glucosidase with N-terminal K-coil and N-terminal His-tag (KG).

For the substance “human H chain ferritin with C-terminal E-coil, without the sequence of a His-tag (HE)”, the retention rate of relative enzyme activity of the KG-HE complex recovered in a magnetic field, after usage cycles 1 to 3 (93.8%, 82.5%, 56.3%); pH 4.5, 45 °C, 20 min was determined as 93.8%.

The values are drawn from publication PMC6915604.
